Patent US20200392244A1 (CRESCENDO BIOLOGICS, published 2020)

Experiments:
[1] = target: T1, cynomolgus PSMA on CHO cells (cynomolgus, UniProt A0A2K5VNZ0 1-750); test: cell-based or functional assay
[2] = target: T2, human PSMA on cells (CHO human PSMA, DU145 PSMA, LNCaP) (human, UniProt Q04609 1-750); test: cell-based or functional assay
[3] = target: T2, human PSMA on cells (CHO human PSMA, …); test: FMAT Mirrorball direct cell binding of purified His-tagged VH on DU145 cells expressing PSMA [panel Du145 PSMA]
[4] = target: T2, human PSMA on cells (CHO human PSMA, …); test: FMAT Mirrorball direct cell binding of purified His-tagged VH on CHO cells expressing human PSMA [upper left panel huPSMA CHO]
[5] = target: T2, human PSMA on cells (CHO human PSMA, …); test: FMAT Mirrorball direct cell binding of purified His-tagged VH on LNCaP cells [panel LNCap]
[6] = target: T1, cynomolgus PSMA on CHO cells; test: cell-based or functional assay; remark: listed apart in the source
[7] = target: T3, recombinant human PSMA (R&D, cat. no. 4234-ZN) (human, UniProt Q04609 44-750); test: HTRF binding assay with 3 nM biotinylated PSMA; VH 7 days in cynomolgus serum at 37 C
T3 construct: Bought protein; also called rhPSMA; Recombinant PMSA
T3 sequence (Q04609 44-750 limits assumed): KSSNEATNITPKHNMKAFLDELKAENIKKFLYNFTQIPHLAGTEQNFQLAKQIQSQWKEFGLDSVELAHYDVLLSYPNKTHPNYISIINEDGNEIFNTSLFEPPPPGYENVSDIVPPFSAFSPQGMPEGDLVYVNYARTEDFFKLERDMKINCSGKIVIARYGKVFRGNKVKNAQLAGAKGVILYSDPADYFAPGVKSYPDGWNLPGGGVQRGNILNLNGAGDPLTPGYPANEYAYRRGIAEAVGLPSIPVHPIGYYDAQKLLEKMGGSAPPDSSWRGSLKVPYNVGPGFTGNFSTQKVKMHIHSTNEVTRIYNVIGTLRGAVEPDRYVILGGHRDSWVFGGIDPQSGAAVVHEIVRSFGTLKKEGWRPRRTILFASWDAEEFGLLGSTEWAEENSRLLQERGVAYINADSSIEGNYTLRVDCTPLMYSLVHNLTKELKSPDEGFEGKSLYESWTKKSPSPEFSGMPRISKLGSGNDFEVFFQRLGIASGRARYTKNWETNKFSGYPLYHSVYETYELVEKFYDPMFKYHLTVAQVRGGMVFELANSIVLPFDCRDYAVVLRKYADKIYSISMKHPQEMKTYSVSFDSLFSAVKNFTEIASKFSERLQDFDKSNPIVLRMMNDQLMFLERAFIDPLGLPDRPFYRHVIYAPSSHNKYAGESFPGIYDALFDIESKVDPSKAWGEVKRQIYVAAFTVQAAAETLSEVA

[8] = target: T1, cynomolgus PSMA on CHO cells; test: FMAT screen, Cyno PSMA CHO cells

T2 sequence (Q04609 whole entry): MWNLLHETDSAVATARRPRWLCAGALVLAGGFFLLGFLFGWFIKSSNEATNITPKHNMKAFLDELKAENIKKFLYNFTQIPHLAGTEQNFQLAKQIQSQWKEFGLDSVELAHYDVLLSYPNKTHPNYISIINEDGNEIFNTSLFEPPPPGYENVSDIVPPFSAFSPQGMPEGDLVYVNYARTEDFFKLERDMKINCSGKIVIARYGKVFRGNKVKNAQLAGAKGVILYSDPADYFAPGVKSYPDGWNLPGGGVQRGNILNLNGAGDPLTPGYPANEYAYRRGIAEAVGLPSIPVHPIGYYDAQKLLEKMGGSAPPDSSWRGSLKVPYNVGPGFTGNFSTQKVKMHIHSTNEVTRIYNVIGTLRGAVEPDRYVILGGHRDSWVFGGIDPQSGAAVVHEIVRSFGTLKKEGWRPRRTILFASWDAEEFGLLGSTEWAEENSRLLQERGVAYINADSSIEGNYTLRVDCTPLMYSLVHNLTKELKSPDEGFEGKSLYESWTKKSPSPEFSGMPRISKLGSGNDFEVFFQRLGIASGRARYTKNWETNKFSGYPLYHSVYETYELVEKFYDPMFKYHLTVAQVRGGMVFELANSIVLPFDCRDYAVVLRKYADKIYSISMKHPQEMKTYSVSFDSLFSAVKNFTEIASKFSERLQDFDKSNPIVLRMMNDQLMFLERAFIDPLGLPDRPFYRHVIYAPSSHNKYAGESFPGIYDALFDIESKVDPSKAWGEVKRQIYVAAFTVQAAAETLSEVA

B1: single VH domain antibody 2.1 (VHH)
VHH: EVQLVESGGGVVQPGRSLRLSCAASGFSFSGYGMHWVRQAPGKGLEWVAYISYDGSNKYYADSVKGRFTISRDNSKNTLYLQMNSLRAEDTAVYYCAKDPAWGLRLGESSSYDFDIWGQGTMVTVSS
IC50 (read off the curve), His-ZAP killing [1]: ~0.1 nM | IC50 (read off the curve), His-ZAP killing [2]: ~0.04 nM

B2: single VH domain antibody 2.12 (VHH)
VHH: EVQLVESGGGVVQPGRSLRLSCAASGFSFSGYGMHWVRQAPGKGLEWVAYISYDKSNKYYADKVKGRFTISRDNSKNTLYLQMNSLRAEDTAVYYCAKDPAWGLRLGESSSYDFDIWGQGTMVTVSS
notes: variant of 2.1; human single VH domain; C-terminal His(-myc) tag not included
EC50 (read off the curve) [3]: ~0.2 nM | EC50 (read off the curve) [4]: ~0.1 nM | EC50 (read off the curve) [5]: ~0.03 nM

B3: single VH domain antibody 2.13 (VHH)
VHH: EVQLVESGGGVVQPGRSLRLSCAASGFSFSGYGLHWVRQAPGKGLEWVAYISYDASNKYYADNVKGRFTISRDNSKNTLYLQMNSLRAEDTAVYYCAKDPAWGLRLGESSSYDFDIWGQGTMVTVSS
notes: as for B2
EC50 (read off the curve) [3]: ~0.2 nM | EC50 (read off the curve) [4]: ~0.1 nM

B4: 3.2 (VHH)
VHH: EVQLVESGGGVVQPGRSLRLSCAASGFPLISYGMNWVRQAPGKGLDWVAFISYDGSNKYYADSVKGRFTISKDNSKNTLYLQMNSLRAEDTAVYYCAKDRIVGARVPDAFDIWGQGTMVTVSS
EC50 (read off the curve), pHrodo Green internalisation [6]: ~1e-09 M

B5: single VH domain antibody 5.1 (VHH)
VHH: QVQLVESGGGVVQPGRSLRLSCAASGFTFNNYGMHWVRQAPGKGLEWVAIISYDGNTKYYTDSVKGRFTISRDNSKNTLYLQMNSLRVEDTAVYYCAKGLWPSDVWGQGTTVTVSS
EC50 (read off the curve), pHrodo Green internalisation [6]: ~2e-09 M

B6: single VH domain antibody 3.1 (VHH)
VHH: EVQLVESGGGVVQPGRSLRLSCAASGFPLISYGMHWVRQAPGKGLEWVAFMTYDGSNRYYADSVKGRFTISRDNSKNTLYLQMNSLRDEDTALYYCARDRIVGGRVPDAFDIWGQGTMVTVSS
notes: human single VH domain; C-terminal His(-myc) tag not included; also called VH3.1; family 3 parent
EC50 (read off the curve) [7]: ~1 nM

B7: single VH domain antibody 13.1 (VHH)
VHH: EVQLVESGGGSVQPGGSLRLSCAASGFTFSDYWMTWVRQVPGKGLEWVANIKQDGSEKYYVDSVKGRFTISRDNAKNSLYLQMNSLRAEDTAVYYCARDRGGAVALYHNGMDMGGQGTTVTVSS
notes: human single VH domain; C-terminal His(-myc) tag not included; also called family 13
binding result [8]: no binding
